Experiment [1] addresses T1, human 4Ig-B7-H3 expressed on transduced cells (human, UniProt Q5ZPR3 29-534).
T1 construct: also called isoform 1; Jurkat-B7H3
T1 sequence: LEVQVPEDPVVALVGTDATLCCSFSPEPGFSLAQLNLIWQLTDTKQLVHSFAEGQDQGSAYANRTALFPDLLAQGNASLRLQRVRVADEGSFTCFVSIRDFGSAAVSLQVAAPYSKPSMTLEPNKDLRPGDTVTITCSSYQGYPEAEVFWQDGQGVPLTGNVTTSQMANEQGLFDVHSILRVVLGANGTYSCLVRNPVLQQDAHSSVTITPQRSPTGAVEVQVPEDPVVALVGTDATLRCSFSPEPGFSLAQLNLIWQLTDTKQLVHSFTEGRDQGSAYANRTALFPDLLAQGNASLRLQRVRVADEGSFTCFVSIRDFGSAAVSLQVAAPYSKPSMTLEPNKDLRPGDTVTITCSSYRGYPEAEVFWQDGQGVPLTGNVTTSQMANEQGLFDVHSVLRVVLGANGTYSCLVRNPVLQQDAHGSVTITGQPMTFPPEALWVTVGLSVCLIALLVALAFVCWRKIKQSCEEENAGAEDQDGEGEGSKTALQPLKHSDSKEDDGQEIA
Description: flow cytometry, scFv-Fc on Jurkat cells transduced with B7-H3 isoforms (FIG. 2D). A general note: A flow cytometer gives signals particle by particle.

In experiment [2] the target is T2, recombinant mouse B7-H3 (plate bound) (mouse, UniProt Q8VE98 29-244, limits assumed).
T2 sequence (looked up): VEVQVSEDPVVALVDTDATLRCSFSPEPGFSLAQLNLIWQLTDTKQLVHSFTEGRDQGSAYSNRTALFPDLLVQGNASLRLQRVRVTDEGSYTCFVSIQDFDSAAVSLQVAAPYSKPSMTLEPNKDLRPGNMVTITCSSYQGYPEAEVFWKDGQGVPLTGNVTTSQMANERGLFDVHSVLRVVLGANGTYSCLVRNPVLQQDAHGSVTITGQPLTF
In words: binding ELISA with immobilised recombinant protein (FIG. 28C). How it is done: (§1) TC6, TF9 and BH6 were produced as chimeric antibodies with a human IgG1 Fc domain. Antibodies were purified on protein A columns (Cytiva) and were tested in ELISA against plate bound antigen, with detection using goat anti-human IgG (H+L) (SeraCare). Cross reactivity against mouse B7-H3 was tested using flow cytometry against the mouse cell line 3T3/NA1.

The target in experiment [3] is T3, human B7H3 expressed on cell surface (human, UniProt Q5ZPR3 29-534).
T3 construct: whole, on cells; also called B7-H3 on LAN-1, Kelly, IMR-32 and other B7-H3 positive target cell lines
T3 sequence (looked up): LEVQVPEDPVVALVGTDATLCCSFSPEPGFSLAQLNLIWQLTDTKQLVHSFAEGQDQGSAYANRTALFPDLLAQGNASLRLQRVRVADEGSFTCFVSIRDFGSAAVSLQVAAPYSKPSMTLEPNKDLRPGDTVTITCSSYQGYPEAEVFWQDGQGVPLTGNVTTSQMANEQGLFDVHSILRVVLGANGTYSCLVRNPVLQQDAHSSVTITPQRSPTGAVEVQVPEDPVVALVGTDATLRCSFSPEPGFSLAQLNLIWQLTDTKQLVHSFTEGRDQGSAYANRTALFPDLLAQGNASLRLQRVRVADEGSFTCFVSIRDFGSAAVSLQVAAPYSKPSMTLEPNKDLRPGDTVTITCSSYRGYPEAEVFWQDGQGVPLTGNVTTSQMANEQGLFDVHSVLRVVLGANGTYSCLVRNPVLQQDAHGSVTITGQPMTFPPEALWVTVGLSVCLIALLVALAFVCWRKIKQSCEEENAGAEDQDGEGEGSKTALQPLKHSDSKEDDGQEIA
Description: flow cytometry, chimeric IgG1 and anti-human secondary on neuroblastoma lines and B7-H3 positive Jurkat lines (FIG. 6). The text has this: FIG. 6—Chimeric antibodies derived from TE9 and BH6 show specificity for human B7H3 expressed on cell surface. TE9 and BH6 ScFv that had been cloned into full human IgG1 antibodies were used in staining experiments. A. Chimeric human IgG1 full antibodies derived from TE9 and BH6 ScFvs were used to stain 3 neuroblastoma cell lines, LAN-1, Kelly and IMR-32. […] B. Chimeric antibodies TE9 and BH6 were used to stain the 3 B7-H3 positive Jurkat cell lines, 4Ig-B7-H3, 2Ig-B7-H3 and T-B7-H3 (see FIG. 2)

For experiment [4], the target named is T4, mouse B7-H3 on the mouse cell line 3T3/NA1 (mouse, UniProt Q8VE98 29-316).
T4 construct: whole, on cells
T4 sequence (looked up): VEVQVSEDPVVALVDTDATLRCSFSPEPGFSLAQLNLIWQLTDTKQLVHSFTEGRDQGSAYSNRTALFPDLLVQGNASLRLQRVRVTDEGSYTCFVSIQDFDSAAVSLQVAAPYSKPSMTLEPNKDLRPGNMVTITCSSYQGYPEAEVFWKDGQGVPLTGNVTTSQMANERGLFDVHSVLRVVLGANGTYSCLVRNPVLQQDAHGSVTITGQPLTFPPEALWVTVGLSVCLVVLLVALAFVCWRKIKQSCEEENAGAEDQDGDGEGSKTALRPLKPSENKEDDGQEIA
In words: flow cytometry on the mouse cell line 3T3/NA1 (FIG. 5A). How it is done: as §1

B1: TC6 scFv-Fc fusion protein (Fc fusion, not shown: a dimerising Fc or GST; small tags and cut ends)
scFv: QVKLQESGAELVKPGASVKLSCKASGYTFTSYWIHWVKQRPGQGLEWIGMIHPKSGSINYNEKFRSKATLTVDKSSSTAYMQLSRLTSEDSAVYFCASGGYGSSLDYWGQGTTVTVSSGGGGSGGGGSGGGGSQIVLTQSPAIMSASPGEKVTMTCSASSSVSYMYWYQQKPRSSPISWIYLTSNLASGVPARFSGSGSGTSYSLTISSMEAEDAATYYCQQWSSDPLTFGAGTKLELK
Consider B1, for which the binding result in experiment [1] is “binds”.

B2: TF9 scFv-Fc fusion protein (Fc fusion)
scFv: QVKLQESGAELVKPGASVKLSCKASGYTFTSYWIHWVKQRPGQGLEWIGMIHPKSGSINYNEKFRSKATLTVDKSSSTAYMQLSRLTSEDSAVYFCASGGYGSSLDYWGQGTTVTVSSGGGGSGGGGSGGGGSENVLTQSPAIMSASPGEKVTISCSASSSVSYVYWYQQKPGSSPKPWIYRTSNLASGVPARFSGSGSGTSYSLTISSMEAEDAATYYCQQWSSNPLTFGAGTKLELK
notes: not shown: Fc of the scFv-Fc fusion, and any hinge or junction to it
For B2, the binding result in experiment [1] was “binds”.

B3: TE9 scFv-Fc fusion protein (Fc fusion, not shown: a dimerising Fc or GST; small tags and cut ends)
scFv: QVQLQQSGAALVKPGTSVKLSCKASGYTFTSYWMHWVKQRPGQGLEWIGMIHPKSGSVDYNEKFTNKATLTGDKSSGTAYMQLSSLTSEDSAVYYCARGGYGSPFDYWGQGTTVTVSSGGGGSGGGGSGGGGSENVLTQSPAIMSASPGEKVTMTCSASSSVSYMYWYQQKPGSSPRLLIYRTSNLASGVPARFSGSGSGTSYSLTISSMEAEDAATYYCQQWSSNPPTFGGGTKLEIK
Take B3: the binding result in experiment [1] is “binds”.

B4: TE9 chimeric human IgG1 full antibody (antibody, V domains shown)
VH: QVQLQQSGAALVKPGTSVKLSCKASGYTFTSYWMHWVKQRPGQGLEWIGMIHPKSGSVDYNEKFTNKATLTGDKSSGTAYMQLSSLTSEDSAVYYCARGGYGSPFDYWGQGTTVTVSS
VL: ENVLTQSPAIMSASPGEKVTMTCSASSSVSYMYWYQQKPGSSPRLLIYRTSNLASGVPARFSGSGSGTSYSLTISSMEAEDAATYYCQQWSSNPPTFGGGTKLEIK
notes: Chimeric antibody, mouse variable domains cloned into full human IgG1; also called TE9 antibody; TE9 whole antibody
For B4, the binding result in experiment [2] was “no binding”; in experiment [3], “binds”.

B5: BH6 chimeric human IgG1 full antibody (antibody, V domains shown)
VH: QVKLQQSGADLVKPGASVKLSCKASGYTFTSYWMHWVKQRPGQGLEWIGMIHPNSDGTNYNEKFKNRATLTVDKSSSTAYMQLNSLTSEDSAVYYCARWSYGMDSWGQGTTVTVSS
VL: DIVLTQSPASLAVSLGQRATITCSASSSVSYMHWYQQKSGTSPKRWIYDTSKLASGVPARFSGSGSGTSYSLTISSMEAEDAATYYCQQWSRNPLTFGAGTKLEIK
notes: Chimeric antibody with a human IgG1 Fc domain; also called BH6 antibody
Regarding B5, the binding result in experiment [4] and in experiment [3] was “binds” in each case.

B6: BH6 scFv-Fc fusion protein (Fc fusion, not shown: a dimerising Fc or GST; small tags and cut ends)
scFv: QVKLQQSGADLVKPGASVKLSCKASGYTFTSYWMHWVKQRPGQGLEWIGMIHPNSDGTNYNEKFKNRATLTVDKSSSTAYMQLNSLTSEDSAVYYCARWSYGMDSWGQGTTVTVSSGGGGSGGGGSGGGGSDIVLTQSPASLAVSLGQRATITCSASSSVSYMHWYQQKSGTSPKRWIYDTSKLASGVPARFSGSGSGTSYSLTISSMEAEDAATYYCQQWSRNPLTFGAGTKLEIK
Take B6: in experiment [1], the binding result is given as “binds”.

B7: BF9 scFv-Fc fusion protein (Fc fusion)
scFv: QVKLQQSGAELVKPGASVKLSCKASGYTFTSYWVHWVKQRPGQGLEWIGMIHPKSGSADYNEKFTTKATLTADKSSSTAYMQLSSLTSEDSAVYYCARGGYGSPFDYWGQGTTVTVSSGGGGSGGGGSGGGGSENVLTQSPAIMSASPGEKVTMTCSASSSVSYMYWYQQKPGSSPRLLIYDTSNLASGAPVRFSGRGSGTSYSLTISSMEAEDAATYYCQQWSNNPLTFGAGTKLELK
notes: as for B2
As to B7, the binding result in experiment [1] was “binds”.

Values taken from patent US20250382369A1 (UCL BUSINESS, published 2025).
